Experimental data taken from PMC10397247.

Tests used:
4H535-AA = target: T1, 4H535-AA; assay: two-hybrid library CCmax; settings: mean of both orientations;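 also: natural log of median RNA to DNA barcode read ratio; higher means stronger binding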
T1 chain: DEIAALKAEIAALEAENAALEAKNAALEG

P1-AA-1HGe-Q = target: T2, P1-AA-1HGe-Q; assay: two-hybrid library CCmax; settings: mean of both orientations;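 also: natural log of median RNA to DNA barcode read ratio; higher means stronger binding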
T2 chain: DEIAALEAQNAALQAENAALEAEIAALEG

P1-AA-1HGe-T = target: T3, P1-AA-1HGe-T; assay: two-hybrid library CCmax; settings: mean of both orientations;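 also: natural log of median RNA to DNA barcode read ratio; higher means stronger binding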
T3 chain: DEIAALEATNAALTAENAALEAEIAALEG

4H3651-AA = target: T4, 4H3651-AA; assay: two-hybrid library CCmax; settings: mean of both orientations;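 also: natural log of median RNA to DNA barcode read ratio; higher means stronger binding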
T4 chain: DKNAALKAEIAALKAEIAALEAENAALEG

P1-AA-1HGe-A = target: T5, P1-AA-1HGe-A; assay: two-hybrid library CCmax; settings: mean of both orientations;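 also: natural log of median RNA to DNA barcode read ratio; higher means stronger binding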
T5 chain: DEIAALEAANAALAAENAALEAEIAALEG

P1-AA-1HGe-Y = target: T6, P1-AA-1HGe-Y; assay: two-hybrid library CCmax; settings: mean of both orientations;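 also: natural log of median RNA to DNA barcode read ratio; higher means stronger binding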
T6 chain: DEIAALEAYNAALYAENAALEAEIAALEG

P1-AA-1HGe-S = target: T7, P1-AA-1HGe-S; assay: two-hybrid library CCmax; settings: mean of both orientations
T7 chain: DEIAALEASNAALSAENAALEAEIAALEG

4H3705-AA = target: T8, 4H3705-AA; assay: two-hybrid library CCmax; settings: mean of both orientations
T8 chain: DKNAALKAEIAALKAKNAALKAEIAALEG

GCN2_T = assay: two-hybrid library CCmax
P1-AA-1HGe-R = target: T9, P1-AA-1HGe-R; assay: two-hybrid library CCmax; settings: mean of both orientations
T9 chain: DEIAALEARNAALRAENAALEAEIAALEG

4H895-AA = target: T10, 4H895-AA; assay: two-hybrid library CCmax; settings: mean of both orientations
T10 chain: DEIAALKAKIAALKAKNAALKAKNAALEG

4H465-AA = target: T11, 4H465-AA; assay: two-hybrid library CCmax; settings: mean of both orientations
T11 chain: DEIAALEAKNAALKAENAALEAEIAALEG

P1-AA-1HGe-W = target: T12, P1-AA-1HGe-W; assay: two-hybrid library CCmax; settings: mean of both orientations
T12 chain: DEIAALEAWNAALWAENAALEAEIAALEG

4H_GCN4 = assay: two-hybrid library CCmax; settings: mean of both orientations
Chain of 4H_GCN4 (chain, as listed by the source): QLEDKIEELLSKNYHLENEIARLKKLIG

P1-AA-1HGe-D = target: T13, P1-AA-1HGe-D; assay: two-hybrid library CCmax; settings: mean of both orientations
T13 chain: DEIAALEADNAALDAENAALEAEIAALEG

4H3365-AA = target: T14, 4H3365-AA; assay: two-hybrid library CCmax; settings: mean of both orientations
T14 chain: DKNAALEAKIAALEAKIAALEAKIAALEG

4H_BCR = target: T15, 4H_BCR; assay: two-hybrid library CCmax; settings: mean of both orientations
T15 chain: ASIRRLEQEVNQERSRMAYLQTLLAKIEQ

4H3020-AA = target: T16, 4H3020-AA; assay: two-hybrid library CCmax; settings: mean of both orientations
T16 chain: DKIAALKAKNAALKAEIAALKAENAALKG

P1-AA = target: T17, P1-AA; assay: two-hybrid library CCmax; settings: mean of both orientations
T17 chain: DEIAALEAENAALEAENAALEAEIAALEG

P1-AA-1HGe-H = target: T18, P1-AA-1HGe-H; assay: two-hybrid library CCmax
T18 chain: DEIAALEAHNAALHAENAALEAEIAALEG

4H2898-AA = target: T19, 4H2898-AA; assay: two-hybrid library CCmax; settings: mean of both orientations
T19 chain: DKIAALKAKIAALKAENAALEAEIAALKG

4H2750-AA = target: T20, 4H2750-AA; assay: two-hybrid library CCmax
T20 chain: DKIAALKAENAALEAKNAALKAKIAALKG

P1-AA-1HGe-M = target: T21, P1-AA-1HGe-M; assay: two-hybrid library CCmax; settings: mean of both orientations
T21 chain: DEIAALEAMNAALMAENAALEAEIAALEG

4H_APH = target: T22, 4H_APH; assay: two-hybrid library CCmax; settings: mean of both orientations
T22 chain: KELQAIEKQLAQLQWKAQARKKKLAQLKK

4H58-AA = target: T23, 4H58-AA; assay: two-hybrid library CCmax; settings: mean of both orientations
T23 chain: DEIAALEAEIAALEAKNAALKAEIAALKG

4H355-AA = target: T24, 4H355-AA; assay: two-hybrid library CCmax; settings: mean of both orientations
T24 chain: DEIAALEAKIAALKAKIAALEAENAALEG

4H486-AA = target: T25, 4H486-AA; assay: two-hybrid library CCmax; settings: mean of both orientations
T25 chain: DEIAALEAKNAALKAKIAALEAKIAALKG

4H3782-AA = target: T26, 4H3782-AA; assay: two-hybrid library CCmax; settings: mean of both orientations
T26 chain: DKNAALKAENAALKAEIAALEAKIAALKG

Core_ININ-es_KEEK = target: T27, Core_ININ-es_KEEK; assay: two-hybrid library CCmax; settings: mean of both orientations
T27 chain: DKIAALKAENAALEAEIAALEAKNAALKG

4H918-bH = target: T28, 4H918-bH; assay: two-hybrid library CCNG1
T28 chain: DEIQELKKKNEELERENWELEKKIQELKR

4H370-bH = target: T29, 4H370-bH; assay: two-hybrid library CCNG1
T29 chain: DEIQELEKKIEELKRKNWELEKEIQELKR

4H2576-bH = target: T30, 4H2576-bH; assay: two-hybrid library CCNG1
T30 chain: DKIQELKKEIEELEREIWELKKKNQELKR

4H1328-bH = target: T31, 4H1328-bH; assay: two-hybrid library CCNG1
T31 chain: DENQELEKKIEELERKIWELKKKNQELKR

4H331-bH = target: T32, 4H331-bH; assay: two-hybrid library CCNG1
T32 chain: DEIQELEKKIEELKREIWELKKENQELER

4H568-bH = target: T33, 4H568-bH; assay: two-hybrid library CCNG1
T33 chain: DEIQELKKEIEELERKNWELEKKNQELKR

4H967-bH = target: T34, 4H967-bH; assay: two-hybrid library CCNG1
T34 chain: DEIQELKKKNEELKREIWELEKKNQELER

4H3601-bH = target: T35, 4H3601-bH; assay: two-hybrid library CCNG1
T35 chain: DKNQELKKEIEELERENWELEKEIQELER

4H2667-bH = target: T36, 4H2667-bH; assay: two-hybrid library CCNG1
T36 chain: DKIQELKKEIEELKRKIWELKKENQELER

4H2697-bH = target: T37, 4H2697-bH; assay: two-hybrid library CCNG1
T37 chain: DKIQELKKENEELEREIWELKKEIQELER

4H797-bH = target: T38, 4H797-bH; assay: two-hybrid library CCNG1
T38 chain: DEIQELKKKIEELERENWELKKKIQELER

4H3782-bH = target: T39, 4H3782-bH; assay: two-hybrid library CCNG1
T39 chain: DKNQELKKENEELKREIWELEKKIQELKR

4H3189-bH = target: T40, 4H3189-bH; assay: two-hybrid library CCNG1
T40 chain: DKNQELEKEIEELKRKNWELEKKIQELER

P8A-bS = target: T41, P8A-bS; assay: two-hybrid library CCNG1
T41 chain: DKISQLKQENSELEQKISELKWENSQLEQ

4H1406-bH = target: T42, 4H1406-bH; assay: two-hybrid library CCNG1
T42 chain: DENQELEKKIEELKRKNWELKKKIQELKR

4H4001-bH = target: T43, 4H4001-bH; assay: two-hybrid library CCNG1
T43 chain: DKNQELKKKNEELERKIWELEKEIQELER

4H72-bH = target: T44, 4H72-bH; assay: two-hybrid library CCNG1
T44 chain: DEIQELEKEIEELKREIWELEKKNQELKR

4H883-bH = target: T45, 4H883-bH; assay: two-hybrid library CCNG1
T45 chain: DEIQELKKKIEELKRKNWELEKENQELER

4H3606-bH = target: T46, 4H3606-bH; assay: two-hybrid library CCNG1
T46 chain: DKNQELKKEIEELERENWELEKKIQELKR

4H4038-bH = target: T47, 4H4038-bH; assay: two-hybrid library CCNG1
T47 chain: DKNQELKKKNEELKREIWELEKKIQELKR

4H3907-bH = target: T48, 4H3907-bH; assay: two-hybrid library CCNG1
T48 chain: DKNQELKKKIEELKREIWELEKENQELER

4H462-bH = target: T49, 4H462-bH; assay: two-hybrid library CCNG1
T49 chain: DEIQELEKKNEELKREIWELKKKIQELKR

4H3592-bH = target: T50, 4H3592-bH; assay: two-hybrid library CCNG1
T50 chain: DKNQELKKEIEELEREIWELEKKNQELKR

4H1845-bH = target: T51, 4H1845-bH; assay: two-hybrid library CCNG1
T51 chain: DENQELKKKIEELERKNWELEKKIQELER

4H3843-bH = target: T52, 4H3843-bH; assay: two-hybrid library CCNG1
T52 chain: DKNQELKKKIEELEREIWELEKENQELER

4H1387-bH = target: T53, 4H1387-bH; assay: two-hybrid library CCNG1
T53 chain: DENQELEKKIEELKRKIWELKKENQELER

4H687-bH = target: T54, 4H687-bH; assay: two-hybrid library CCNG1
T54 chain: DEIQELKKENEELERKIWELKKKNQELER

4H1369-bH = target: T55, 4H1369-bH; assay: two-hybrid library CCNG1
T55 chain: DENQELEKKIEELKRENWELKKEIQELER

4H607-bH = target: T56, 4H607-bH; assay: two-hybrid library CCNG1
T56 chain: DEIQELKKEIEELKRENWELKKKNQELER

4H2610-bH = target: T57, 4H2610-bH; assay: two-hybrid library CCNG1
T57 chain: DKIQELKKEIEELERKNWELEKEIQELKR

4H1193-bH = target: T58, 4H1193-bH; assay: two-hybrid library CCNG1
T58 chain: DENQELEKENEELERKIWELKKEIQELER

4H1446-bH = target: T59, 4H1446-bH; assay: two-hybrid library CCNG1
T59 chain: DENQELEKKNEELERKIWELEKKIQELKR

4H953-bH = target: T60, 4H953-bH; assay: two-hybrid library CCNG1
T60 chain: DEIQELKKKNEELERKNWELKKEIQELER

DKIAALKAENAALEAKNAALKAKIAALKG [4H2750-AA]
interaction score (4H535-AA): -1.08 | interaction score (P1-AA-1HGe-Q): 2.33 | interaction score (P1-AA-1HGe-T): 2.06 | interaction score (4H3651-AA): -1.22 | interaction score (P1-AA-1HGe-A): 2.11 | interaction score (P1-AA-1HGe-Y): 2.03 | interaction score (P1-AA-1HGe-S): 1.86 | interaction score (4H3705-AA): -0.91 | interaction score (GCN2_T): -1.81 | interaction score (P1-AA-1HGe-R): 2.26 | interaction score (4H895-AA): -1.79 | interaction score (4H465-AA): 2.28 | interaction score (P1-AA-1HGe-W): 2.15 | interaction score (4H_GCN4): -1.33 | interaction score (P1-AA-1HGe-D): 2.05 | interaction score (4H3365-AA): -1.78 | interaction score (4H_BCR): -1.7 | interaction score (4H3020-AA): -1.5 | interaction score (P1-AA): 1.56 | interaction score (P1-AA-1HGe-H): 1.92 | interaction score (4H2898-AA): 1.97 | interaction score (4H2750-AA): -1.55 | interaction score (P1-AA-1HGe-M): 2.44 | interaction score (4H_APH): -2.38 | interaction score (4H58-AA): -0.465 | interaction score (4H355-AA): -0.643 | interaction score (4H486-AA): 1.13 | interaction score (4H3782-AA): -0.13

DEIAALEAKNAALKAKIAALKAENAALEG [Core_ININ-es_EKKE]
interaction score (Core_ININ-es_KEEK): 2.15

DENQELEKENEELERKIWELKKEIQELER [4H1193-bH]
interaction score (4H918-bH): -1.33 | interaction score (4H370-bH): -0.564 | interaction score (4H2576-bH): 1.19 | interaction score (4H1328-bH): 0.732 | interaction score (4H331-bH): -0.0475 | interaction score (4H568-bH): -0.254 | interaction score (4H967-bH): -0.174 | interaction score (4H3601-bH): 0 | interaction score (4H2667-bH): -0.964 | interaction score (4H2697-bH): -0.317 | interaction score (4H797-bH): -0.528 | interaction score (4H3782-bH): 1.32 | interaction score (4H3189-bH): -0.917 | interaction score (P8A-bS): 0.622 | interaction score (4H1406-bH): -0.835 | interaction score (4H4001-bH): 0.425 | interaction score (4H72-bH): -0.782 | interaction score (4H883-bH): -0.574 | interaction score (4H3606-bH): -0.559 | interaction score (4H4038-bH): 1.52 | interaction score (4H3907-bH): 0.0514 | interaction score (4H462-bH): -1.11 | interaction score (4H3592-bH): 0.341 | interaction score (4H1845-bH): -0.0802 | interaction score (4H3843-bH): 0.181 | interaction score (4H1387-bH): -0.684 | interaction score (4H687-bH): -0.482 | interaction score (4H1369-bH): -0.969 | interaction score (4H607-bH): -1.7 | interaction score (4H2610-bH): -0.0229 | interaction score (4H1193-bH): -0.399 | interaction score (4H1446-bH): 0.131 | interaction score (4H953-bH): -1.33
